Target: 2G12 IgG monomer (human)
Test: SEC

Q: How did the stoichiometry N turn out when 2G12 IgG monomer (antibody) was run?
A: 3

Reference: PMC3919625
